Results published in the DeepSol protein solubility set.

Assay: soluble on expression in E. coli; label from the status in PepcDB or PDB records

Sequence | soluble on expression in E. coli
SLPVRESLQKQVKILIGLGNLGFGGYRGLYTRFTNPNGFLEPASSDLLLINERRNLSVIGAVSRTFSVPSVSGPAFQVCGYHIDLLLSDPCKSMASLGSKSLFVDRHSASLVSKRFTGGMVSGDGPNRGRISMRLRGKDHNEKSTICAYFAYRGAKRWIYLNQQRRGMGFRGLHSSLSNRLSAGNAPDVSLDNSVTDEQVRDSSDSVAAKLCTKPLKLVSGSCYLPHPDKEATGGEDAHFICAEEQALGVADGVGGWAELGIDAGYYSRELMSNSVNAIQDEPKGSIDPARVLEKAHTCTKSQGSSTACIIALTNQGLHAINLGDSGFMVVREGHTVFRSPVQQHDFNFTYQLESGRNGDLPSSGQVFTVAVAPGDVIIAGTDGLFDNLYNNEITAIVVHAVRTNIDPQVTAQKIAALARQRAQDKNRQTPFSTAAQDAGFRYYGGKLDDITVVVSYVAASKEEGKH | soluble
MGSDKIHHHHHHMALFESYDRRIDHINAVLNEYGINGIEDAKAICDAKGIDPYTMCKETQPICFENACWAYVVGAAIAIKKGCTNAAEAAEAIGIGLQAFCIAGSVADDRKVGIGHGNLAARLLREETKCFAFLAGHESFAAAEGAIKIAEMANKVRKEPLRVILNGLGKDAAKIISRINGFTYVQTQFDYMTGEVNVIEEKAYSNGLRAKVKCYGADDVREGVAIMRKEGVDVSITGNSTNPTRFQHPVAGTYKKECMENGHPYFSVASGGGTGRTLHPDNMAAGPASYGMTDTMGRMHGDAQFAGSSSVPAHVEMMGFLGMGNNPMVGATVAVAVAIEEAMKK | not soluble
MKQIAFIGLGHMGAPMATNLLKAGYLLNVFDLVQSAVDGLVAAGASAARSARDAVQGADVVISMLPASQHVEGLYLDDDGLLAHIAPGTLVLECSTIAPTSARKIHAAARERGLAMLDAPVSGGTAGAAAGTLTFMVGGDAEALEKARPLFEAMGRNIFHAGPDGAGQVAKVCNNQLLAVLMIGTAEAMALGVANGLEAKVLAEIMRRSSGGNWALEVYNPWPGVMENAPASRDYSGGFMAQLMAKDLGLAQEAAQASASSTPMGSLALSLYRLLLKQGYAERDFSVVQKLFDPTQGQ | soluble
MNGNIIGEDEKGVALFVEDNSGNEHEIGVNSEGDIFHHADNVIPDNPSERSDKEDETFSQVRRFARYHVYREKGYDTIPTDENPDRIAAVLLAIIDLDDEEFENRFKPLYKQVMSHERPDVEPSLDLPDSVYHGGEPCYKQNIYLEESLEEMKSTVSEQLVESIGQEQITEVLQADSGDFFSRAASLFGGPNGNYGGLTIDGISGIDTVHLVDGKEQTIKSDDPFERGPDARLELYPSNFDFEAFRFYIGYNLICQIRDCFIGMGVEPPAQYRVLGPGKDKYTGKYHAFDFYPEYHNPGATIPGYIRPAPI | not soluble
GMAINIIEYNRSYKEELIEFILSIQKNEFNIKIDRDDQPDLENIEHNYLNSGGQFWLAINNHQNIVGTIGLIRLDNNMSALKKMFVDKGYRNLKIGKKLLDKVIMTCKEQNIDGIYLGTIDKFISAQYFYSNNGFREIKRGDLPSSFPKLDVDNRFYYRNLKD | soluble
MQSISNCPIGLVSKNTINSASTIAEWVACPWKYINVVGSGRYVSNKPDKITRYDLLKAAQEAEMQELLTRNDMKGRHKRNKKSKIALETIAEENSSTESLF | not soluble
SKVKEGKDLIVGLDIGTSKIVAIVAEMKPEGGFEIIGLGSHLSRGLKKGVVVNIEATVNAIQRALEEVELMAGCRISEVYAGIAGNHIRGFNSHGMVAIKDKEVTQADVEKVMETAKAVNIPADQ | not soluble
MTHIYEPRLSRIAIDKLRPTQIAVGFREVELKRKEWRETRKKDGDDFLGNHIVPVVAGPKDRAYLIDHHHLVLALSKEGVEHVLTSEVAKFSHLGKDEFWSVMDHRNLIYPFDAQGLRRQSGDIPKNIHDLEDDPFRSLAGALRMAGGYAKVIIPFSEFGWADFLRRRIDRDLLSDSFDDALAEAMKLAKSREARHLPGWCGVEEAAALEHHHHHH | soluble
MDRKFNSDEQWYISPLLNLATVKEEMLEVRELGEVIIDRTMDDFDSKTEKEHEMEMWKNSLSYIQGVTEEESLEAIEEVSNLDMFLEGSSDVQTRRFEDMKGDRKFLERSPLVSHKHVISREKTMKTSRQRKSAYVTSLKYDKYMLNAGANTSLFHPQCSILEKCEDDIVLIVDALMPYNRELLSSELRSSRLLKPMTKFLVRGDTLLSDLRQKFVCQSDTIVPLENGLELDPPNLDNATAVRFPSSFIFVHDTFYVDMPPNAIDISHPIRNFMLHREIYDPVEACSMEGVRIIDLKLRLGQPYIFQHSGNCEHLLVFHDLRLLHESDPWGIDKYPFTLYEKGNEKKCDICKKGHVEFVVERHELLPNTYTHFCRTCFQEFNYVHGVKTHSFIAWPYTELQTGEQRGWPFGDFEQEDD | not soluble
IATGIPTGFKDLDDLTNGLRGGQMIIVAARPGVGKSTIALDFMRSASIKNNMASVIFSLEMSKSEIVMRLLSAETEIRLADMRGGKMDETAWEKMVQKLDKVAQAPLFIDDSANLTMMEIRSKARKLKQKHDLKMIVVDYLQLMSSGKRVESRQQEVSEFSRQLKLLAKELDVPLIAISQLNRGPESRTDKRPQLADL | not soluble
MGSDKIHHHHHHMESAKDITGRIFNIQKYSIYDGDGVRTLIFMKGCNIRCPWCANPEGIRRAYQILFSPDKCLHCGKCAEACPRGIHTLIADEYGSRFHHIDRTVQCTGCRKCEAACPSNALDIVGKDMTVAELMAVIMQDYSFYQSSGGGVTLSGGEVSLQTDFAVALLQACKQKMINTAVETQGTTSISHYDQLAAVTDMFLFDIKHIDTNQHKALFGIGNENIRRNLEHLVELGANIVIRMPLVRGYNDSYDAIMGAIHYVQKLAKRGNVRRIDILPYHQLGRKKYERLGMIYPIKADPSYNEEELNRLDAFFDEFDFDIRLVRH | not soluble
MAHHHHHHMRLLTHNFLACLKCDTYPLLVTAAEMEEIPVEYDAEFTRRMLARVDYASLRTTFHALREAHESVRGPSHDEGADTAEGALASSELPETMEGADFSDHSAFLRTAHYAMNVVAVRNGTLECPACKTTFSINDFIPNFVPEAK | soluble
MSLNPLSRNVIPIEIHRIVAVGDVHGDAERFRQILEMSGVISLRSNSSKQVVWKPRWGTKEGNFFREYGTRLRTTLIQTGDLIDRGEEDLEVLEMAVSLFNEVRTNYTDDKVVLLMGNHELLNLQGHFHYVHSKSMGGFLTRALRKRAFELDGTFGGFILENFTVAYAVADTLFVHAGIDEHVVSDGIERLNREAKQAIRTKNFGHILLGSTGPLWSRKMFLDASNGRCADTKKALASLGVKRVVVGHTPQRSGRVETFCGGSVIAIDVGMSRWMYGNIAALEITVTSYSSGDGEGHHHHHH | soluble
MGHHHHHHSHMAFRQPNTKELKVIRKALSYYGSGDFLSHYALLVKEGEKKEVYGVSKELYGVIGELNPHYAGVKIGEVGRRFRFSLEGTFWLLRNSRNRVWVNERGEMLFLYGRDIFAGSVERASEFGENSIVFVCNRFDDVLGIGRSRHSSDELSNLPEDKVFVENLVDRGEYLRH | soluble
GMWSYDKITDYLMNNLGEKRYKHSLGVMDTAVRLAGIYNEDTEKARIAGLVHDCAKKLPGEKIIEICTNEGYELGDEDIRNSYLLHGLAGRILAKKVIGIDDEDVLNAIEFHTTGRPNMSLLEKIIYIADYIEPGREFKGVDELRKAADEDLNKALLMSFDNTIKFVIDKGGFLHHNTIEARNYLISRKG | soluble
MSVLEGINSKALKTGNAGKNLKFKKIGDLPPPSPSPNTFRIYSMRFCPAAQRALIYASVKKIPSEVININLQQKPDWYFTKNYKGQVPTLEHAEGKKLVIESAVIPEYLDDIFPETKILPSDPYEKVQQKLLLERLSDQLTPAFGRVFRAIKNPEELKEKFESILKAFEEAESLLEGAFYSGTSSPGFVDYLIYPSFQRVYWLTFLLEIFPLPSDNFPGPGYPKLSQWFKAITAIPEVAAASQSTENGVGSCKEYMKGLPYFDYGL | not soluble
